Results taken from publication PMC10996437.
Like-named read-outs stand apart in the source and are kept apart here.

Key:
[1] = molecular target: Poly-His tagged murine FAM72A (mouse) (UniProt Q8BFZ8); assay: BLI
[2] = molecular target: Poly-His tagged murine FAM72A (mouse) (UniProt Q8BFZ8); assay: BLI; remark: listed apart in the source

Chain of UniProt Q8BFZ8 (Q8BFZ8 whole entry): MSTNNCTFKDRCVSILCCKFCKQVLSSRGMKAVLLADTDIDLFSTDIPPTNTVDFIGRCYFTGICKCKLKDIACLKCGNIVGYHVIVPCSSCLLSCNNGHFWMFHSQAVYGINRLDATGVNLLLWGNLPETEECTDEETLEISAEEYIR

Row | Substance | Kd [1] [nM] | koff [1] [s⁻¹] | kon [1] [M⁻¹ s⁻¹] | Kd [2] [nM]
1 | murine uracil-DNA glycosylase, nuclear form (mUNG2), untagged (enzyme) | 600 | 0.023 | 43000 | –
2 | synthetic polypeptide containing the first 25 aa of mUNG2, C-terminal biotin | 1.9 | 0.037 | – | 188
